# Measured values from US8241627B2, “Modified polypeptides stabilized in a desired conformation and methods for producing same” (The Center for Blood Research, Inc., priority 2000, dated 2012).
# Columns and labels:
# [1] = biological target: T1, ICAM-1 (Homo sapiens, UniProt P05362); assay: Binding of LFA-1 or isolated I-domain transfectants to immobilized ICAM-1; format: cell-based; parameters: ICAM-1 was purified from human tonsil; from tissue; host or cells: human tonsil
# Method: Clones of the transfectants that expressed similar levels of cell surface LFA-1, as determined by flow cytometry using monoclonal antibody TS2/4 (FIG. 3B), were tested for their ability to bind to immobilized ICAM-1, as previously described (Lu, C and Springer, T A (1997) J Immunol 159:268-278).
# Briefly, ICAM-1 was purified from human tonsil, and coated to 96-well plates as described previously (Lu, C and Springer T A, (1997) J Immunol 159:268-278). Cells were labeled with a florescence dye 2′,7′-bis-(carboxyethyl)-5(and-6)-carboxyfluorescein, acetoxymethyl ester (BCECF-AM), and resuspended to 1×10^6/ml in L15/FBS. 50 μl cell suspension was mixed in ICAM-1 coated wells with an equal volume of L15/FBS in the absence or presence of monoclonal antibody (CBRLFA-1/2, 10 μg/ml). Monoclonal antibodies were used at final concentration of 1:20 hybridoma supernatant, 1:200 ascites, or μg/ml purified IgG. For testing the effect of divalent cations, BCECF-AM-labeled cells were washed 2× with TS buffer, pH7.5 (20 mM Tris, pH 7.5, 150 mMNaCl) containing 5 mM EDTA, followed by 2 washes with TS buffer, pH7.5. Cells were then resuspended to 5×10^5/ml in the TS buffer, pH7.5 supplemented with 1 mM MgCl2/CaCl2, MgCl2, MnCl2 mM EDTA, and 100 μl cell suspension was added to ICAM-1 coated wells. After incubation at 37° C. for 30 minutes, unbound cells were washed off on a Microplate Autowasher (Bio-Tek Instruments, Winooski, Vt.). The fluorescence content of total input cells and the bound cells in each well was quantitated on a Fluorescent Concentration Analyzer (IDEXX, Westbrook, Me.). The bound cells were expressed as a percentage of total input cells per sample well.
# For generating stable K562 transfectants that express the I-domain on the surface, 20 μg of SspI-linearized pcDNA3.1/Hygro(+) containing the sequences encoding the I domain and the PDGFR transmembrane domain was used to transfect K562 cells by electroporation as described above. Transfectants were selected for resistance to 100 μg/ml hygromycin B, and were further subcloned by cell sorting and limiting dilution; clones that expressed similar levels of surface wild-type and mutant I domain-PDGFR were selected for functional studies. Stable cell lines were maintained in RPMI medium 1640 supplemented with 10% FBS and 100 μg/ml hygromycin B. Cell surface expression of the isolated I-domains was determined by flow cytometry using antibody TS1/22 to the I-domain (FIG. 7). Two clones from each transfectant were selected and tested for binding to immobilized ICAM-1, and similar results were obtained with each of the two clones (FIG. 8A).
# If the constitutive ligand binding activity of mutant K287C/K294C is due to the formation of a disulfide bond between the introduced C287 and C294, disruption of the disulfide bond with a reducing agent would abolish ligand binding ability of the mutant. Accordingly, the transfectants were treated with the reducing agent DTT (10 mM) in L15/FBS containing Mg^2+ and Ca^2+, and the ability of transfectants to bind to ICAM-1 was assessed.
# Furthermore, the effect of divalent cations on ligand binding of the isolated I-domains expressed on the surface of K562 transfectants was tested. The binding reactions were performed in HEPES/NaCl/glucose (20 mM HEPES, pH 7.5, 140 mM NaCl, 2 mg/ml glucose) supplemented with 1 mM […], 1 mM Mg^2+, or 1 mM EDTA.
# Target sequence in this assay (P05362 28-532): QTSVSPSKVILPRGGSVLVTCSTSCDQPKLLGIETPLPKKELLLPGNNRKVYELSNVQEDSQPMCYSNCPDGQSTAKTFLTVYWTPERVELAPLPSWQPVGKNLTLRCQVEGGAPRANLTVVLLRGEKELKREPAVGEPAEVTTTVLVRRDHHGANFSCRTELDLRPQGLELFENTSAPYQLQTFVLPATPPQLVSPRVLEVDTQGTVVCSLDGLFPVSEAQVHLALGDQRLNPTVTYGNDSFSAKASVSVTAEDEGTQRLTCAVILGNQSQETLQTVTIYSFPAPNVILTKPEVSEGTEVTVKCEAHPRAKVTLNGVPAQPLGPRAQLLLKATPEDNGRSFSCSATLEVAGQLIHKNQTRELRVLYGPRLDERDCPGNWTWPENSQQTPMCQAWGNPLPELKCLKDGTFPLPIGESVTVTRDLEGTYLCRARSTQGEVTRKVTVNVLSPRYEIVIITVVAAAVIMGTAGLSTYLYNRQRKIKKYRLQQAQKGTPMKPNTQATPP
# [2] = biological target: T1, ICAM-1; assay: BIAcore binding of soluble αL I-domains to ICAM-1
# Method: (§1) Briefly, recombinant mutant αL I-domain stabilized in the open conformation (K287C/K294C), or recombinant wild-type αL I-domain from amino acid residue G128 to Y307, were cloned into pET11b (Novagen) and expressed in E. coli induced with 1 mM IPTG for 4 hours. The recombinant proteins were purified from inclusion bodies by solubilization of inclusion bodies in 6M guanidine HCl and were refolded by dilution in the presence of 0.1 mM Cu^2+/phenanthrolin to enhance formation of disulfide bonds. Protein was concentrated by ammonium sulfate precipitation, dialyzed, and purified over a monoQ ion-exchange column. […] The recombinant proteins were then purified by gel filtration and concentrated by Centriprep. For BIAcore™ analysis, recombinant ICAM-1, ICAM-2 and ICAM-3 Fc chimeras were immobilized on the BIAcore™ sensor chip by an amine-coupling method. Recombinant αL I-domains were flowed in, and BIAcore™ assays were performed with Tris-buffered saline supplemented with 1 mM MgCl2 or 2 mM EDTA, at a flow rate of 10 μl/minute at 25° C.
# Target sequence in this assay (P05362 28-480 limits assumed): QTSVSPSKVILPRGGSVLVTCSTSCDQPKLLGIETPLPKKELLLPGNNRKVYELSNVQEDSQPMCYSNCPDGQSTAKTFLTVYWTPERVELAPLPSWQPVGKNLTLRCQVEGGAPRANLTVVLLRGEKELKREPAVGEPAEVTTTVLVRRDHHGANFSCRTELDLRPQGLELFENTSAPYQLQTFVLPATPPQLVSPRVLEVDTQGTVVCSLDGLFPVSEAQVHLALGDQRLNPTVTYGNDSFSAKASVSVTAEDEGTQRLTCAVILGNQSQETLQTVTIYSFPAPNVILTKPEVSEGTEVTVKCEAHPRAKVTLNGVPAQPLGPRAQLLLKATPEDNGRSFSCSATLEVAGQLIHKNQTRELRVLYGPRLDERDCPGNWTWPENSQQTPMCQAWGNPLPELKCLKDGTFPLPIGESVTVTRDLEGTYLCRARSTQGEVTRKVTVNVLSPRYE
# [3] = test system: murine T lymphoma cell line EL-4; assay: PMA-induced LFA-1-dependent homotypic aggregation of EL-4 cells; format: cell-based; conditions: 50 ng/ml PMA, 2 hours at 37° C.
# Method: Cells were incubated in a 96 well plate in the presence of 50 ng/ml PMA and varying amounts of soluble I-domains.
# [4] = biological target: murine ICAM-1 (Mus musculus, UniProt P13597); assay: Affinity of open I-domain for murine ICAM-1; format: binding
# murine ICAM-1, sequence (P13597 28-537): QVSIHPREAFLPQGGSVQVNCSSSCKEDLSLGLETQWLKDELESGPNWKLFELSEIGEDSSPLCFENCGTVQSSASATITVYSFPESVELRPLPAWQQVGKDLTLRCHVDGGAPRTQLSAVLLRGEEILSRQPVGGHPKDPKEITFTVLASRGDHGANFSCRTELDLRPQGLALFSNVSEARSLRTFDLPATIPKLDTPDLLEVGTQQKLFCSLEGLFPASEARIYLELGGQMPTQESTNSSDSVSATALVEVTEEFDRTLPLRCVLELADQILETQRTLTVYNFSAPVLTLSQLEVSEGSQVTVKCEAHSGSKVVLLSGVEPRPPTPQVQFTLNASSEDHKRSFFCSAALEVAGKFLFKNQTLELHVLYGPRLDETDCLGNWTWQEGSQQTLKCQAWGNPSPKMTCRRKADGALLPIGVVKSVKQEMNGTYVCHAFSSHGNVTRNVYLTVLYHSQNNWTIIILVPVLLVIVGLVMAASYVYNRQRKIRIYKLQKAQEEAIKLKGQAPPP
# Method: as §1
# To analyze binding kinetics, different concentrations of open I-domain were tested for ligand binding (FIG. 9, Panels B, D and F).
# [5] = BIAcore, 1:1 interaction model, 1 mM MgCl2, 25° C.
molecule,measurement,setting,value
"K287C/K294C: human αL (LFA-1) I-domain with K287 and K294 replaced by cysteines; high affinity locked open; tested in intact LFA-1, cell-surface and soluble forms (protein, human αL (LFA-1) I-domain with K287 and K294 replaced by cysteines; tested in intact LFA-1, cell-surface and soluble forms) GNVDLVFLFDGSMSLQPDEFQKILDFMKDVMKKLSNTSYQFAAVQFSTSYKTEFDFSDYVKRKDPDALLKHVKHMLLLTNTFGAINYVATEVFREELGARPDATKVLIIITDGEATDSGNIDAAKDIIRYIIGIGKHFQTKESQETLHKFASKPASEFVCILDTFECLKDLFTELQKKIY",binding of 293T transient transfectants to immobilized ICAM-1,"[1]; 293T, no activating antibody",constitutively strong binding
same,binding of K562 cells expressing isolated I-domains to immobilized ICAM-1,[1]; I-domain on cell surface via PDGFR transmembrane domain,strong binding
same,binding of isolated I-domain to ICAM-1 after EDTA treatment,"[1]; K562, 1 mM EDTA",abolished
same,binding of K562 stable transfectants to immobilized ICAM-1 with activating mAb CBRLFA-1/2,"[1]; K562, CBRLFA-1/2 10 μg/ml",did not further enhance binding
same,binding of K562 transfectants to ICAM-1 in the presence of EDTA,"[1]; K562, intact LFA-1, EDTA",abolished
same,binding of K562 stable transfectants to immobilized ICAM-1,"[1]; K562, no activating antibody",strongly bound
same,effect of DTT treatment on binding to ICAM-1,"[1]; K562 transfectants, DTT 10 mM in L15/FBS",abolished
same,interaction of I-domain with ligands in the presence of EDTA,"[2]; 2 mM EDTA, ligands ICAM-1, -2, -3",abolished
same,"Koff, open I-domain binding to ICAM-1",[2]; [5],0.0230 s⁻¹
same,"Kon, open I-domain binding to ICAM-1",[2]; [5],128000 M⁻¹ s⁻¹
same,"Kon, interaction of αL I-domains with ICAM-1",[2]; calculated by Koff/KD,128000 M⁻¹ s⁻¹
same,"Koff, interaction of αL I-domains with ICAM-1","[2]; curve fitting of dissociation phase, 1:1 binding model",0.0230 s⁻¹
same,inhibition of PMA-induced LFA-1 dependent homotypic aggregation,[3],inhibited
same,affinity for murine ICAM-1,[4],nanomolar range
